The values below are quoted from earlier work in PMC4986992.

Usually Kd stands for the equilibrium constant for the complex coming apart.

The target in the data set is Glycophorin A (GpATM) TM (Homo sapiens) (UniProt P02724).

“Glycophorin A (GpATM) TM (from UniProt P02724)”: the Kd is 1.2 pM.
